In patent publication US20250230246A1 (SAMYANG BIOPHARM USA, published 2025):
Blank lines part the entries; values can stand above or below the binder they belong to.

How the values were obtained:
[1] = molecular target: MICB*005 (human); experiment: kinetic binding assay (ka, kd, Rmax in RU; method not named)
[2] = molecular target: MICA*008 (human); experiment: as above
[3] = molecular target: T1, Human CD64 (FcγRI) (human, UniProt P12314 16-288, limits assumed); experiment: as above
[4] = molecular target: T2, Human CD32a (FcγRIIA) (human, UniProt P12318 34-217, limits assumed); experiment: as above
T2 sequence (looked up): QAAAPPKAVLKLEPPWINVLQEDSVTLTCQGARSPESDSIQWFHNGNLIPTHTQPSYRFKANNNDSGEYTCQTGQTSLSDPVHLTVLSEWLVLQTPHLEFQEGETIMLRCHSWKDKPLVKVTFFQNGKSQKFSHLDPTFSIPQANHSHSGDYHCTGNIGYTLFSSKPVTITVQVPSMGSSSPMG

[5] = molecular target: T1, Human CD64 (FcγRI); experiment: kinetic binding assay (Table 2); ND = not detectable
[6] = molecular target: T2, Human CD32a (FcγRIIA); experiment: as above

T1 sequence (P12314 16-288 limits assumed): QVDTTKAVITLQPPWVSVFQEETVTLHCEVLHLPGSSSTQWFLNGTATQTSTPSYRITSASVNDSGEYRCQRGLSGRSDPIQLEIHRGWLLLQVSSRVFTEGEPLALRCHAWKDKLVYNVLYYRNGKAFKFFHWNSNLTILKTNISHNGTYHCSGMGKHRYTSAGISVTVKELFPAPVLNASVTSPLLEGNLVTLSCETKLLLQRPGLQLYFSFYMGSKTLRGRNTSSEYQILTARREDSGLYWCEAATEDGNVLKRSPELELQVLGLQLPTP

Kd [1]: 21 nM | koff [1]: 0.0394 s⁻¹ | kon [1]: 1.88e+06 M⁻¹ s⁻¹ | Kd [2]: 0.98 nM | koff [2]: 0.000627 s⁻¹ | kon [2]: 639000 M⁻¹ s⁻¹ | Kd [3]: 1.61 nM | koff [3]: 0.00133 s⁻¹ | kon [3]: 825000 M⁻¹ s⁻¹ | Kd [4]: 1540 nM | koff [4]: 0.772 s⁻¹ | kon [4]: 500000 M⁻¹ s⁻¹
B1: SYB-010 (antibody, human IgG1, kappa)
heavy: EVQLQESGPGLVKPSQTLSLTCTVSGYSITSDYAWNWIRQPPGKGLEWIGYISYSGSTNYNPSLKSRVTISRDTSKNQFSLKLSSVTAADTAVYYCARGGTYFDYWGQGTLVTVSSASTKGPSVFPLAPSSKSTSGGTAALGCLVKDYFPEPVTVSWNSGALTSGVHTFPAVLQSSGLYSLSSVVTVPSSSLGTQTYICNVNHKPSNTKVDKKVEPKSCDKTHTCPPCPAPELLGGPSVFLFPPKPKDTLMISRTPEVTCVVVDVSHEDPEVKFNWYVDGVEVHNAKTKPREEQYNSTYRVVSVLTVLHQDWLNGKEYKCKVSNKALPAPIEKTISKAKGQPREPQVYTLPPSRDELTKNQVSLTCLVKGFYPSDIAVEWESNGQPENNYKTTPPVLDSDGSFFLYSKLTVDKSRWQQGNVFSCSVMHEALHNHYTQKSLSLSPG
light: DVVMTQSPSTLSASVGDRVTITCRASAHINNWLAWYQQKPGKAPKLLISDATSLESGVPSRFSGSGSGKEYTLTISSLQPDDFATYYCQHYWSTPWTFGQGTKVEIKRTVAAPSVFIFPPSDEQLKSGTASVVCLLNNFYPREAKVQWKVDNALQSGNSQESVTEQDSKDSTYSLSSTLTLSKADYEKHKVYACEVTHQGLSSPVTKSFNRGEC
notes: also called SYB-010 Fc wildtype

binding result [5]: no binding | binding result [6]: no binding | Kd [1]: 19.8 nM | koff [1]: 0.0939 s⁻¹ | kon [1]: 4.74e+06 M⁻¹ s⁻¹ | Kd [2]: 1.04 nM | koff [2]: 0.000617 s⁻¹ | kon [2]: 596000 M⁻¹ s⁻¹
B2: SYB-011 (antibody, human IgG1, kappa, L234A L235A)
heavy: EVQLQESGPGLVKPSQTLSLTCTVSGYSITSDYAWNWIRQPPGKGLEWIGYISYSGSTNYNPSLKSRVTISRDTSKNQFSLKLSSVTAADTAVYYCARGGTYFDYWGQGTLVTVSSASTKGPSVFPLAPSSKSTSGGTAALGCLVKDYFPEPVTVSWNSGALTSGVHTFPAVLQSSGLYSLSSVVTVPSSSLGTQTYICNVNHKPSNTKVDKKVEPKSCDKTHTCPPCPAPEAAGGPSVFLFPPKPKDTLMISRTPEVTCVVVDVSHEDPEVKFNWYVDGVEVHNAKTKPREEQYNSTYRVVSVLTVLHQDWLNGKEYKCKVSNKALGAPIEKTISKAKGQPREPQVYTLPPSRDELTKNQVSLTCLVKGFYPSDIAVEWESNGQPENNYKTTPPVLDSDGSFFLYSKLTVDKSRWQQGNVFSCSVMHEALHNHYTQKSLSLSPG
light: B1 light
notes: Positions are EU index numbers; also called SYB-011 Fc mutant; effectorless anti-MIC antibody
